Measured values published in patent CN117624362A.

T1: 人CD20 (human) (UniProt P11836)
T1 sequence (looked up): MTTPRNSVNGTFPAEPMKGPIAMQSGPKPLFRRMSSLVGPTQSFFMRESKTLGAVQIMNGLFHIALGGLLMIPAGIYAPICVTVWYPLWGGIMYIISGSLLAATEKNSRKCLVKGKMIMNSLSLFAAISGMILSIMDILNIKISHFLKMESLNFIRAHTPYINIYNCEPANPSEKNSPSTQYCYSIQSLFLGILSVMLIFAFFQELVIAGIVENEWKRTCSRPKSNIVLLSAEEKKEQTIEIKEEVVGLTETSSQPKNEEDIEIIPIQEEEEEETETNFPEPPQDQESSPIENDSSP


Molecular target: T1, 人CD20 (human)
Assay: flow cytometry titration on lysed human blood cells, dilutions 1:100 to 1:96000 of 1 mg/mL antibody, goat anti-mouse IgG-PE detection

Row | 亲和力(kd) | Molecule
1 | 195 (1mg/mL) | 商品化鼠抗人CD20[2H7]抗体 (Biolegend) (antibody)
2 | 190 (1mg/mL) | 鼠抗人CD20[ZXCloneHCD20-07] (antibody, V domains shown) VH: QVQLQQPGAELVKPGASVKMSCKASGYTFTSYNIHWVKQTPGQGLEWIGAIYPGNGDTSHNQKFKGKATLTADRSSSTAYMQFSSLTSEDSAVYYCARSRRYDGDWSFDVWGAGTTVTVSS VL: QIVLTQSPAIMSASPGEKVTMTCSASSFITYMHWFQQKSGTSPKRWIYDTSKLASGVPARFSGSGSGTSYSLTISSMEAEDAATYYCQQWNSNPPTFGGGTKLEIKR
